Source: patent publication US20220204611A1 (Amgen, published 2022)
Where a chain is given by its changes, count along the chain named.

T1: human TREM2 (human, UniProt Q9NZC2 19-174, limits assumed)
T1 sequence: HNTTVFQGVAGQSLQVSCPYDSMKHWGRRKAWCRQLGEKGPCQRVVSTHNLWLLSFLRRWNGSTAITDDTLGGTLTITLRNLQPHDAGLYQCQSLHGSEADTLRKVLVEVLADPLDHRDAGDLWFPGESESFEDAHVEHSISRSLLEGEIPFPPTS

B1: V65 (Fab, V domains shown)
VH: EVQLVQSGAEVKKPGESLKISCKGSGYSFTSYWIAWVRQMPGKGLEWMGIIYPGDSDTRYSPSFQGQVTISADKSISTAYLQWSSLKASDTAMYFCARSRTFYYDSSDYFDYWGQGTLVTVSS
VL: DIQMTQSPSSVSASVGDRVTITCRASQGISSWLAWYQQKPGKAPKLLIYAASSLQNGVPSRFSGSGSGTDFTLTISSLQPEDFATYFCQQADSFPRTFGQGTKLEIK
B2: V67 (Fab, V domains shown)
VH: B1 VH with I50M, S99Q
VL: B1 VL
B3: V80 (Fab, V domains shown)
VH: B1 VH with S99Q, T101N
VL: B1 VL
B4: V83 (Fab, V domains shown)
VH: B1 VH with S99Q
VL: B1 VL with D92V
B5: V66 (Fab, V domains shown)
VH: B1 VH with Y27T, S99Q
VL: B1 VL
B6: V92 (Fab, V domains shown)
VH: B1 VH with S99Q, Y103H
VL: B1 VL
B7: V1 (Fab, V domains shown)
VH: B1 VH with Y32S
VL: B1 VL with Q55T, F94Y
B8: V55 (Fab, V domains shown)
VH: B1 VH with R59I, F64H, S99Q
VL: B1 VL
B9: V71 (Fab, V domains shown)
VH: B1 VH with S99Q
VL: B1 VL with F94E
B10: V90 (Fab, V domains shown)
VH: B1 VH with Y32E, S99Q
VL: B1 VL with S31R
B11: V78 (Fab, V domains shown)
VH: B1 VH with S28R, S99Q
VL: B1 VL
B12: V46 (Fab, V domains shown)
VH: B1 VH with S99Q
VL: B1 VL with S53T
B13: V42 (Fab, V domains shown)
VH: B1 VH with Y32A, S99Q
VL: B1 VL
B14: V93 (Fab, V domains shown)
VH: B1 VH with S99Q
VL: B1 VL with S31G
B15: V81 (Fab, V domains shown)
VH: B1 VH with S99Q
VL: B1 VL with W32L
B16: V57 (Fab, V domains shown)
VH: B1 VH with S99Q
VL: B1 VL with R24A
B17: V94 (Fab, V domains shown)
VH: B1 VH with S99Q
VL: B1 VL with S52A
B18: V82 (Fab, V domains shown)
VH: B1 VH with S99Q
VL: B1 VL with A51G
B19: V91 (Fab, V domains shown)
VH: B1 VH with G54D, S99Q
VL: B1 VL
B20: V79 (Fab, V domains shown)
VH: B1 VH with R59N, S99Q
VL: B1 VL
B21: V68 (Fab, V domains shown)
VH: B1 VH with S99Q, Y103R
VL: B1 VL
B22: V54 (Fab, V domains shown)
VH: B1 VH with Y32Q, S99Q
VL: B1 VL
B23: V43 (Fab, V domains shown)
VH: B1 VH with D57G, S99Q
VL: B1 VL
B24: V47 (Fab, V domains shown)
VH: B1 VH with S99Q
VL: B1 VL with R96M
B25: V59 (Fab, V domains shown)
VH: B1 VH with S99Q
VL: B1 VL with Q89M
B26: V58 (Fab, V domains shown)
VH: B1 VH with S99Q
VL: B1 VL with A50K
B27: V70 (Fab, V domains shown)
VH: B1 VH with S99Q
VL: B1 VL with S52G
B28: V56 (Fab, V domains shown)
VH: B1 VH with S61Q, S99Q
VL: B1 VL
B29: V44 (Fab, V domains shown)
VH: B1 VH with G54S, S99Q
VL: B1 VL
B30: V45 (Fab, V domains shown)
VH: B1 VH with S99Q
VL: B1 VL with W32F
B31: V2 (Fab, V domains shown)
VH: B1 VH with Y27S, S56G
VL: B1 VL with L54R, S93R
B32: V69 (Fab, V domains shown)
VH: B1 VH with S99Q
VL: B1 VL with W32Y

Key:
human TREM2 [1] = target: T1, human TREM2; test: yeast-displayed Fab FACS, 2nd screen 10 nM
human TREM2 [2] = target: T1, human TREM2; test: yeast-displayed Fab FACS, 2nd screen 2 nM
human TREM2 [3] = target: T1, human TREM2; test: yeast-displayed Fab FACS, 1st screen 10 nM
human TREM2 [4] = target: T1, human TREM2; test: yeast-displayed Fab FACS, 2nd screen 100 nM
human TREM2 [5] = target: T1, human TREM2; test: yeast-displayed Fab FACS, 1st screen 110 nM

| Binder | binding signal fold over 6E7 parental (human TREM2 [1]) | binding signal fold over 6E7 parental (human TREM2 [2]) | binding signal fold over 6E7 parental (human TREM2 [3]) | binding signal fold over 6E7 parental (human TREM2 [4]) | binding signal fold over 6E7 parental (human TREM2 [5]) |
| --- | --- | --- | --- | --- | --- |
| B1 | 2.75 fold | 1.29 fold | 2.05 fold | – | – |
| B2 | – | – | – | 0.84 fold | 0.8 fold |
| B3 | – | – | – | 0.5 fold | 0.59 fold |
| B4 | – | – | – | 0.29 fold | 0.2 fold |
| B5 | – | – | – | 0.74 fold | 0.25 fold |
| B6 | – | – | – | 0.65 fold | 0.22 fold |
| B7 | 1.92 fold | 1.29 fold | 1.68 fold | – | – |
| B8 | – | – | – | 0.66 fold | 0.24 fold |
| B9 | – | – | – | 0.48 fold | 0.37 fold |
| B10 | – | – | – | 0.36 fold | 0.33 fold |
| B11 | – | – | – | 1.11 fold | 0.86 fold |
| B12 | – | – | – | 0.96 fold | 0.83 fold |
| B13 | – | – | – | 0.41 fold | 0.45 fold |
| B14 | – | – | – | 1.05 fold | 0.35 fold |
| B15 | – | – | – | 0.23 fold | 0.17 fold |
| B16 | – | – | – | 0.85 fold | 0.84 fold |

| Binder | binding signal fold over 6E7 parental (human TREM2 [1]) | binding signal fold over 6E7 parental (human TREM2 [2]) | binding signal fold over 6E7 parental (human TREM2 [3]) | binding signal fold over 6E7 parental (human TREM2 [4]) | binding signal fold over 6E7 parental (human TREM2 [5]) |
| --- | --- | --- | --- | --- | --- |
| B17 | – | – | – | 0.87 fold | 0.31 fold |
| B18 | – | – | – | 0.79 fold | 0.3 fold |
| B19 | – | – | – | 0.61 fold | 0.25 fold |
| B20 | – | – | – | 0.52 fold | 0.7 fold |
| B21 | – | – | – | 0.43 fold | 0.44 fold |
| B22 | – | – | – | 0.54 fold | 0.55 fold |
| B23 | – | – | – | 0.33 fold | 0.2 fold |
| B24 | – | – | – | 0.47 fold | 0.42 fold |
| B25 | – | – | – | 0.6 fold | 0.19 fold |
| B26 | – | – | – | 0.68 fold | 0.28 fold |
| B27 | – | – | – | 0.84 fold | 0.79 fold |
| B28 | – | – | – | 0.59 fold | 0.23 fold |
| B29 | – | – | – | 0.52 fold | 0.65 fold |
| B30 | – | – | – | 0.53 fold | 0.43 fold |
| B31 | 2.9 fold | 2.23 fold | 2.55 fold | – | – |
| B32 | – | – | – | 0.4 fold | 0.41 fold |
